In PMC3688683, “The N-Terminal Domains of Vps3 and Vps8 Are Critical for Localization and Function of the CORVET Tethering Complex on Endosomes” (PLoS ONE, 2013):

Target: T1, Vps3-TAP (full-length Vps3, C-terminal TAP tag) (yeast (genomic locus of BY4741/BY4733 …, UniProt P23643 1-1011))
T1 construct: Vps3, CORVET-specific subunit, yeast, full-length; also called Vps3-Cbp; source: yeast, genomically TAP-tagged, in lysate; overexpressed and TAP-purified from yeast for the GST-Rab pull-down; not shown: TAP, C-terminal, kept
T1 sequence (looked up): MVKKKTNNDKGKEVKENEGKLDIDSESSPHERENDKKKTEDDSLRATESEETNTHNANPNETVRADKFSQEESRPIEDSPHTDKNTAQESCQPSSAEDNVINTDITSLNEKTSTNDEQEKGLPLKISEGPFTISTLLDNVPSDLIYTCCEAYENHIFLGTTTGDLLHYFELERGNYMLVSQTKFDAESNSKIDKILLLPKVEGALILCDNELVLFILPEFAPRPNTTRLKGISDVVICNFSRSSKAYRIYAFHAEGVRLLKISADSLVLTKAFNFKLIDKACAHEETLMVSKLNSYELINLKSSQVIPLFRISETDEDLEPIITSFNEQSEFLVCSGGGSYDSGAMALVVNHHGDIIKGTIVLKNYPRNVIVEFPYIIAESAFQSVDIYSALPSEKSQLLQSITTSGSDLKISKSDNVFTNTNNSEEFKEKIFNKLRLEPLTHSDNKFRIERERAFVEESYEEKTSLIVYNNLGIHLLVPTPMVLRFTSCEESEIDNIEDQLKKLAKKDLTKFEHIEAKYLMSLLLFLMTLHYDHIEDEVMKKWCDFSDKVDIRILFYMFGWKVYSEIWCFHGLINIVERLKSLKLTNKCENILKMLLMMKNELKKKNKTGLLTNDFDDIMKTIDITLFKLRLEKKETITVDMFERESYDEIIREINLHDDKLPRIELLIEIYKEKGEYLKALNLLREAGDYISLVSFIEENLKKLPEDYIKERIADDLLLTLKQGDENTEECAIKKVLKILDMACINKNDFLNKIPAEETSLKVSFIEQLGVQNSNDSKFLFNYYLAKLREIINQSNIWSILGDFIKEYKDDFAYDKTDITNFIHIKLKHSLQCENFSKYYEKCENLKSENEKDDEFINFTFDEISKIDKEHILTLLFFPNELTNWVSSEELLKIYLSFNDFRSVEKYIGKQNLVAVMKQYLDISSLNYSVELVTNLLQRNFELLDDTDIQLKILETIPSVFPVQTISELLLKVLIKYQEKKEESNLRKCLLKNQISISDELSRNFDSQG
Experiment: pull-down; 150 µg GST-Vps21 loaded with GTPγS (or GDP) on GSH-Sepharose; 35 µg yeast-purified Vps3-Cbp construct, 1 h at 4°C; 20 mM HEPES/NaOH pH 7.4, 150 mM NaCl, 2 mM MgCl2, 0.1% NP-40, 7 mg/ml BSA; eluted with 20 mM EDTA; blot against Cbp
Settings: both partners purified

- binding result: binds
B1: GST-Vps21 (natural protein, yeast, UniProt P36017 1-210, looked up)
chain: MNTSVTSIKLVLLGEAAVGKSSIVLRFVSNDFAENKEPTIGAAFLTQRVTINEHTVKFEIWDTAGQERFASLAPMYYRNAQAALVVYDVTKPQSFIKARHWVKELHEQASKDIIIALVGNKIDMLQEGGERKVAREEGEKLAEEKGLLFFETSAKTGENVNDVFLGIGEKIPLKTAEEQNSASNERESNNQRVDLNAANDGTSANSACSC
notes: Vps21, endosomal Rab5-like GTPase of yeast; loaded with GTPγS or GDP before the pull-down; Held on GSH-Sepharose; nucleotide state set by loading with 1 mM GTPγS or GDP; also called Vps21-GTP; immobilized Vps21; source: recombinant
